Assay results reported in article PMC10132971.

How the values were obtained:
[1] = target: Smc5/6 hexamer (lacking Nse5/6) (Saccharomyces cerevisiae (W303)) (UniProt Q08204+Q12749+Q07913+P38632+Q05541+P43124); test: single-molecule fluorescence; details: 1 M NaCl wash; both ends tethered to surface; Mass photometry: 40 mM Tris-HCl pH 7.5, 100 mM K-glutamate, 7.5 mM MgCl2, 30 C, 10 nM protein, 5 nM DNA; single-molecule: 2 nM Smc5/6, imaging buffer with …
[2] = target: Smc5/6 octamer (WT, with Nse5/6) (Saccharomyces cerevisiae (W303)) (UniProt Q08204+Q12749+Q07913+P38632+Q05541+P43124+Q03718+P40026); test: single-molecule fluorescence; details: 1 M NaCl wash after 1 h incubation; nonlooping complexes, n=481; both ends tethered to surface; Mass photometry: 40 mM Tris-HCl pH 7.5, 100 mM K-glutamate, 7.5 mM MgCl2, 30 C, 10 nM protein, 5 nM DNA; single-molecule: 2 nM Smc5/6, imaging buffer with …
[3] = target: Smc5/6 octameric complex with Nse4-6xHis-SNAP labelled with Alexa 647 (S. cerevisiae) (UniProt Q08204); test: single-molecule fluorescence, counting of photobleaching steps; Alexa 647-labelled complex (2 nM unless stated otherwise) on surface-tethered lambda-DNA; 40 mM Tris-HCl pH 7.5, 100 mM NaCl, 7.5 mM MgCl2, 2 mM ATP, 30 °C; loop-extruding complexes
[4] = target: Smc5/6 hexameric complex lacking Nse5/6 (S. cerevisiae) (UniProt Q08204); test: mass photometry; 10 nM complex with 5 nM 200 bp linear double-stranded DNA, no ATP; 40 mM Tris-HCl pH 7.5, 100 mM potassium glutamate, 7.5 mM MgCl2, 30 °C for 10 min; monomer to dimer of complexes; details: remark: other sources report otherwise
[5] = target: Smc5/6 hexameric complex lacking Nse5/6 (S. cerevisiae) (UniProt Q08204)
[6] = target: Smc5/6 hexameric complex lacking Nse5/6 (S. cerevisiae) (UniProt Q08204); test: mass photometry; 10 nM hexamer with 10 nM purified Nse5/6 (1:1) and 5 nM 200 bp DNA, no ATP; 40 mM Tris-HCl pH 7.5, 100 mM potassium glutamate, 7.5 mM MgCl2, 30 °C for 10 min; details: remark: other sources report otherwise
[7] = target: Smc5/6 hexameric complex lacking Nse5/6 with Nse4-6xHis-SNAP labelled with Alexa 647 (S. cerevisiae) (UniProt Q08204); test: single-molecule fluorescence, counting of photobleaching steps; Alexa 647-labelled complex (2 nM unless stated otherwise) on surface-tethered lambda-DNA; 40 mM Tris-HCl pH 7.5, 100 mM NaCl, 7.5 mM MgCl2, 2 mM ATP, 30 °C; loop-extruding complexes; details: remark: other sources report otherwise
[8] = target: Smc5/6 octameric complex with Nse2-6xHis-SNAP labelled with Alexa 647 (S. cerevisiae) (UniProt Q08204); test: as above

Substance: lambda DNA, 48.5 kbp (48,502 bp)
- binding signal (% remaining bound after high-salt wash) [1]: 0
- binding signal (% remaining bound after high-salt wash) [2]: 7

Substance: Smc5/6 octameric complex with Nse4-6xHis-SNAP labelled with Alexa 647 (from UniProt Q08204 1-1093; Q12749 1-1114; Q07913 1-336; P38632 1-267; Q05541 1-303; P43124 1-402; Q03718 1-556)
- dimer fraction [3]: 100%
- stoichiometry N [3]: 2

Substance: Smc5/6 hexameric complex lacking Nse5/6, Q08204 1-1093; Q12749 1-1114; Q07913 1-336; P38632 1-267; Q05541 1-303; P43124 1-402
- dimers, percent of normalized population [4]: 40%
- dimers, percent of total counts [4]: 25%
- looping probability of DNA with the hexamer compared with the WT octamer [5]: 15 fold
- dimers, percent of total counts, with Nse5/6 added 1:1 [6]: 3%

Substance: Smc5/6 hexameric complex lacking Nse5/6 with Nse4-6xHis-SNAP labelled with Alexa 647, Q08204 1-1093; Q12749 1-1114; Q07913 1-336; P38632 1-267; Q05541 1-303; P43124 1-402
- stoichiometry N [7]: 2

Substance: Smc5/6 octameric complex with Nse2-6xHis-SNAP labelled with Alexa 647 (from UniProt Q08204 1-1093; Q12749 1-1114; Q07913 1-336; P38632 1-267; Q05541 1-303; P43124 1-402; Q03718 1-556)
- stoichiometry N [8]: 2
